# Source: the domain aggregation screens of Martell et al. (2025)
# Assay: soluble fraction after stress (log2 fold change); higher = more stays soluble; pooled small domains, quantitative proteomics
# Settings: stress: 75 degC
# 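Also: 20 min heating vs room temperature control held 20 min.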
row,Sequence,soluble fraction (log2)
1,HMIDQIAEQLQQRLAVDTAFATIQRDYPDVIANKDIELLTAIKVNQKIAEGASRASAMLESAKEVYETL,0.196
2,HMIDRPLTLVEDYERFAGELAKITLRFMLDGRKRFNGRLAGFDEDGKIVLETSFGRFAFSFDEIDSARI,-3.08
3,HMIDSVFASYRQVALDDELWDKVRNGAVLPKVELFEVMDGPVLFTYQSKIVAMYEPHPTKAGYIKPRKMFL,-2.09
4,HMIDTTKILPGQEFKNMQELSVALTGQKMPAGKGYVLQQEKFKLYFSWKKITGTHKLIIDEIYEEPKT,-3.23
5,HMIDYIKYTVDGKTYELINNWDGTWSRELEAPLVAGRYDLLLEISQNGLVTYIDSSDPRYEFYLDVI,-3.02
6,HMIEESTVPDLKGKSQEDAIKLLEDANLKYQIVEEESKKIEAGYVISQETDANKKVNAGDTVIIHVST,0.645
7,HMIEFYTMQDMFYFKLTGDNTSRERREALGKILGIGYGNATQMVSRLNNYGISKEEFSKAIEEIEKQLEA,-2.89
8,HMIEIKNLSFSYGKKKQSVFNDFSLTLDKGSVYGLLGKNGTGKSTLLYLMTGLLRPQAGQVLYKGVDVS,0.141
9,HMIEKVNDYVVRFANVNGTGSASANNLFALAIYRMGVPVTPKNIFPSNIQGLPTWFEVRVSGSGYLARRG,0.162
10,HMIELDRTNLLGVFGPKSRPYALLMLSNGEMIKISIGDQFFGWRVYGIDEKSIQVQNGTKQEILRIP,-3.91
11,HMIENGILELKGKTGVAQTVLRPSGKVLIDDEIYDAVALTGYIEKADKVLVTKVEATQLYVEK,-0.0378
12,HMIERLVVSPAAGVFTKKMSVENNTRIDVGHVLGHVGETEVRSPFAGILQNYIAVDGERLTAHQPIAWLRS,-0.0936
13,HMIERVLRTEEHIEAFAGEEVEAKLFAPIDGKKTLRGILGGIEDGRVILTVGDTEYRIEHAKISRLTTVFD,-0.881
14,HMIESVMVGIKELLGDTIDQKYEKYIRLGGIPSDEVDEFNSVFSAYEKVNGNHNGKKKYDYVMNNLPIIPV,-0.574
15,HMIETIQVPRAFNDWHEQADKTKSVFEVYAEIEASENEKLIAWVRNNQNEFAKIWLGALIPELE,-1.7
16,HMIGHIGSAVMLNAKLRPRLPLLHVLALTQSLGERLSAAEAQPEVYRWSDPGQSRVIAEFEGGRLTRWRLE,-2.05
17,HMIGVIVDEVDPDSSLKSGDIITEVNREVILNIDDFVGLVEQIQKTGRSSLLLKILRDKKSLWVTIQFV,0.267
18,HMIHQIPVNVQKIRQIIGINLNENDYLNYLAKLGFVIDEGLIIVPSFRSDVKTQNDLAEEIARV,-0.547
19,HMIINFDAIKLTTELNKYKRHKAIPNTFFDGTYTILDVRELYNDLTPKAQKIADELIEHYNVDVK,-1.73
20,HMIINLGELLKMLEVNKYQDAMDALDSLIEEGGSLEKIESLHEIRQHTHAMNFREAERLLSILIESEGA,-1.73
21,HMIISPKKLEYRQRIINALGDRKMSLNELSKAMGYKGITTKLSFTVDDMIKSGVIEKVMVGAYAKLHIP,-2.33
22,HMIIVMKRNATETQIDHVVRWVESIGYRAHRSNGTEQTVVKAVGGERGGEELKYLAALSGVEKVVPIR,-1.49
23,HMIKDSKAAYKILGVDENATNEEIKKAYRQLVINHHPDKVSHLGEDIQRAANEKLKQINAAYDEIKKQRGF,-0.0128
24,HMIKEGDLVFIWNPKKGDSFLIKVQPGQSQGTHFGQIKHSEIMEHNYGEGIRTPKGQVYYLLRPTLGEFTR,-1.4
25,HMIKEVGYEKFMQMTEEEDIGRVEIDQEENQITFTDKDETAIYKTGMVDDPDLTERLYDAGAEFS,0.0721
26,HMIKIDESTLSEDELKIFEILKIEDKNIENIAIESKILPGKLLATLMNMEMKKIVVQYPGKVFGLNRKLK,-1.81

row,Sequence,soluble fraction (log2)
1,HMIKKAILPVAGLGTRFLPASKSIPKEMVTVVDRPAIEYVVREAVEAGIEQIILVTHSSKASIENYFDR,-0.192
2,HMIKKLDIEPIIKSVVDDFNNIYKLKRGITISYLNDGKNKYFINGIENRIEQIIANLLDNSISFSEDNKDV,0.0165
3,HMIKLSTNENTALRLVMERGLVTESELKGLFDNPVAVMESLISKMIETNTHWIHSERSENGEWVYAWQ,-2.01
4,HMIKNDIGKFIKLYRETHQWSQRELAEHLGVSQRNVSYYEKGERIPPADVLKKLSTLFDVPVDVLLGLK,-1.18
5,HMIKRDLAFSEFIAEVKAGQVREVTIKGNSISGNLNDGREFNTYAPNDPNLVKTLTDQGVLIRAIPLE,0.0691
6,HMILNPQELGERIRKLRLKRNKTQSYFADMLYISSSYLALIESGKRVPNLDLLIHIAKFTDVTLDYLVFG,-1.24
7,HMILVLKPGAPEDLKNELIHDIEKMGLRVHVSVGEGTTIIGLIGDTSKISKYTFSSYEIVSNVLRVT,-0.188
8,HMILYDDEYKGPRYRYGLHSRPLSPGAVPKGFIIHSDRPHPDFRHGTLDYPVKLPDDRAANFELIFIGEFD,-1.59
9,HMIMMTLGEKIRSIRKAKGMTQQELAEKLNTTKQTIGKYEKGIVTNLPLFRINELARALSTTPAYLTGW,-1.46
10,HMIMPSDATEAKLLGVLGNEPLHVDEIRNQAELPIEKVSAALALMELKGMVRQVGGMNYVAVR,-0.0915
11,HMIMQTTSDRINQRMRDLGLQHKDLVAATGASKGTVTNWINGVNNPTGKRLVQLAQALKTTSSWLLTGN,-0.481
12,HMINDPSALGQRAFVDELLWMAGYVPEKIEIYQTLPNNSRVYRVKLDSVNGGFIFIRWDKKKKEHYV,0.106
13,HMINEEELLKIENIKRKYPDSKAALMPVLYFFQEKYGFISDDSIKEISQLLNISEVDIKGVVSFYEMFHEK,-1.32
14,HMINEVVSLRDVPSFIGKAKRDVIRIAEENNLKIKINGNGYVKEQTPNPGNKYKSNQEIKVFLEPG,-0.0743
15,HMINFSKNIISDTTSIKEAIEILNIISGRDNHILFVLNDKRQLIGTLSDGDVRRGMLASKTISQSVTEVM,-0.402
16,HMINIDESIDESLSEDDAVLDLLERASASFTKAQEALLEGDLGRYQTLIEQADRLVAKALELLDEKN,-0.808
17,HMINIQYSYNDGKETLHNLSPEVIAEKIMDDPNGYHIVWKQGMVGWVNANDIDDIAKLLRQKK,-0.311
18,HMINKDNLIEEILKFINTKIADISSNNPLFDIVAKPYISKVVTNNVSKLDKALSLIADDKGMVDADGLLT,-0.129
19,HMINLDGIGEKISRLRKEQGVTIRELSEYTGYSVGFLSNLETGKNSPTVESLQRVAEALRTDIIEILTK,-1.2
20,HMINLNEVLANFQKSYPNLAGFKYDQGMDALVYEGNYIRLNGYMLSRINPTLFSMSPDDIFTYLKNGF,-3.17
21,HMINRMGRLVEALSHMIANTKPGARLPSEPELARQLGVSRATLREAMRTFEAQGMIHRRQGAGTFVVH,-1.27
22,HMINYSQKQLIAIQDELSKRFQALENESTKNNVTGFGVGLHYIDIDLIVNTPEKQKEFREKIMDSPAFRFN,-0.893
23,HMINYYELLKLDMNAAHEEINDAIKLESEKNTIPEDQIRTMKSIFFNTEFKKEYDQRLMNFLLT,-0.671
24,HMIPDAIDPDGRFKWRAGEAVVGFGRHAGEPLKKIAIENPEFLRWILKADFSTDVKKIASDALKGYFPEK,-0.488
25,HMIPDLPAVGVNVHKERRRQQLSLDALAAGSGVSKAMLSQIESGKVNPTVATMWKIAHALGVDFELLLKGE,-0.982
26,HMIPDPPALGSNLHRERRRQQLSLDALAAASGVSKAMLSQIEADKVNPTIATMWKIAHALNIDFETLLRGE,-0.963

row,Sequence,soluble fraction (log2)
1,HMIPENKRVLISLTYIYGIGKKISQDILEKANIDSSIKTSQLTDDDVARIRQLIENDYLVEGELRV,0.0291
2,HMIPLPEDVASMRERLALTPEKADELFGLEDGSFARYEHGEEKVPFVVFQLLWLLGKYPHLIGELR,-1.2
3,HMIPRGFSRYYILELLQKKPHTGKEIIDNAIKESGGRWNPSPGLIYPLLGRLLDENLIEETNDGKYK,-2.24
4,HMIPSLTITVNEHSRQITRGTSLYTLRDALYPDADVLVVNGHPADSDRHLEEGDAVVLIRRGA,-0.456
5,HMIQIQDIAFSEFLQELDKGNIVEVNIKGDLINGDLINGKKFKTVAPYDPNLVEKLSKQNVRINVEPIN,0.157
6,HMIQLKEHDVVRLRETIVENDEKIPAGTRGVVLSVYDGGRAFAVEVADDRAASAIITAFRDQLEVY,-0.467
7,HMIQNTGMMESGDSIRGMALDAGFPLLMVVGYRGWTRKGNTPDSAAVYTEPFLNAFRLNYYLVEHDE,0.3
8,HMIQVNKTQALIIEEMRDNPNITLLELQKTLSLGRTAIQNNVSSLRKRQIIKRVGSNKNGYWEVTDK,-1.89
9,HMIRQETYLLVRKAVGALPVQMRKIIELAMQGKKNAEIAAQLSISEGTVHTLKKTAYKKLRDRLQE,-3.12
10,HMIRQGTKQALLIEMLQRPEGASITEIVEATSWQAHTARGAISGALKKKLGLPITSEKHPERGTVYKL,-0.862
11,HMISAQEQALRNLKLSNGMTWKALAKALGITERSILSYVAAPGTKGYREMPAEVWHKLENISGH,-0.0432
12,HMISDAEWTIMKALWQSEDKKMTLKEIAEAVADSGWSYTTVRTMVGRLVEKEAIEADESHPRNFRYSAA,-1.2
13,HMISEGDIIKGTVIDVNEEEVILDLKYYAQGVIKAENLSNDPDFLAAGKISVGDEIEATVIKMDDGEGNIE,0.529
14,HMISESIPAKDALLRLLNTAYQTRTNAAGEFYFNDVPPGKYILQASVNDVEIIRENISINEN,-0.377
15,HMISEWDAAYSYAKQYYEENGHLFVPKKYVTSEGAALGKWIWEQRDSYLGLSSYKISDKKIEMLEDIGMFW,-4.03
16,HMISINVIGEMISGSYGNTPFSRTYEKDIYEQMVKLSDDADQAQTVEEYNKILAEFSLLTTEDLK,-0.546
17,HMISKWGELVDLAVQLDIIQKSGSWFSMGDERIGQGANSVKDYLIANPDIAEKVEAEVRENLWKLN,-0.625
18,HMISKYLRIESDILSAIREGRLKPGDKLPGQSEMRRIYNVSAITVRKAFTDLINDGYLVGVRGSGTYVAKR,-0.91
19,HMISQATMEKMGLTNRERQLVDFIVRGASNQEISEKMFISINTVKIHVSNIFRKAGVRSRTELMDKYP,-3.26
20,HMISSKDIINDEDGARLGKIADVEIDVATGKILSVHVYRSFKLLHLFGNKDVVQIPWNKIMKIGSDVVIVE,0.102
21,HMISVENLSNREFEIFQLIGNGFSTKEMAKKLNLSIYTVESHKKNIKEKLKLKNSSDLSKYAIQWVIMQN,-2.94
22,HMITANNYFNEVERIGVETLPETLRKGHDLVVRSTNSGTNWSNYQNNESIRKVIDLYLQKLNEYVSTST,0.294
23,HMITGSIQPKNGKYYAVLNLYDHTGKRRPKWVSTGYTVKGNKKKAQEVLNELTRRYSAQLPPSK,-1.05
24,HMITLPDFVGKDVETVKAWAKENGITLIVNKVEDSAKKDTVISQTPTTYDYSKIMKGSSFTVNVAKE,0.206
